What all share (assay): FRET or BRET; FRET-FLIM in nuclei of co-infiltrated N. benthamiana leaves (with P19), 48 h; SPT-EGFP as donor, RFP fusions as acceptors; with or without co-expressed SEC-3xHA or SPY-3xHA; at least 60 nuclei per condition
Background: Bioluminescence resonance energy transfer reports proximity on the nanometre scale.

Data set [1] concerns the molecule itself.
Data set [2] addresses T1, INDEHISCENT (IND) fused to RFP (p35S:IND-RFP) (Arabidopsis thaliana, UniProt O81313 1-198).
T1 construct: INDEHISCENT (IND), bHLH transcription factor of Arabidopsis thaliana; source: N. benthamiana leaves, Agrobacterium-infiltrated, in nuclei of the leaf cells
T1 sequence (looked up): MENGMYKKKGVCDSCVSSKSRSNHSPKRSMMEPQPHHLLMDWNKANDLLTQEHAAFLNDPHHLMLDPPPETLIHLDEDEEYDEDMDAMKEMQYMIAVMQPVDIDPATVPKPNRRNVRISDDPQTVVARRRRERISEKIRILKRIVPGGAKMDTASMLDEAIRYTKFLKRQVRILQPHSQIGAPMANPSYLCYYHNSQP
As to conditions: partners not purified.

The target of data set [3] is T2, HECATE 1 (HEC1) fused to RFP (p35S:HEC1-RFP) (Arabidopsis thaliana, UniProt Q9FHA7 1-241).
T2 construct: HECATE 1 (HEC1), bHLH transcription factor of Arabidopsis thaliana; source: N. benthamiana leaves, Agrobacterium-infiltrated, in nuclei of the leaf cells
T2 sequence (looked up): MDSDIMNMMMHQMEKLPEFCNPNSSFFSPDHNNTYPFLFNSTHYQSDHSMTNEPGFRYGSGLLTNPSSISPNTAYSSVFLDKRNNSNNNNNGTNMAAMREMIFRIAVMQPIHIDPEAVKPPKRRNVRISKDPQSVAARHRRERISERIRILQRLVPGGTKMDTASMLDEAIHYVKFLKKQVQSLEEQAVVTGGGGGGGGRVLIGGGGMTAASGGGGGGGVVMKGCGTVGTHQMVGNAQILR
The note with it: partners not purified.

Our source for the FRET efficiency values is paper doi:10.1101/2023.04.28.538690, “Post-translational modification of SPATULA by SECRET AGENT and SPINDLY promotes organ symmetry transition at the gynoecium apex” (bioRxiv, 2023).

B1: SPATULA (SPT) fused to EGFP (p35S:SPT-GFP); second copy in the homodimer test fused to RFP (p35S:SPT-RFP) (natural protein, Arabidopsis thaliana, UniProt Q9FUA4 1-373, looked up)
chain: MISQREEREEKKQRVMGDKKLISSSSSSSVYDTRINHHLHHPPSSSDEISQFLRHIFDRSSPLPSYYSPATTTTTASLIGVHGSGDPHADNSRSLVSHHPPSDSVLMSKRVGDFSEVLIGGGSGSAAACFGFSGGGNNNNVQGNSSGTRVSSSSVGASGNETDEYDCESEEGGEAVVDEAPSSKSGPSSRSSSKRCRAAEVHNLSEKRRRSRINEKMKALQSLIPNSNKTDKASMLDEAIEYLKQLQLQVQMLTMRNGINLHPLCLPGTTLHPLQLSQIRPPEATNDPLLNHTNQFASTSNAPEMINTVASSYALEPSIRSHFGPFPLLTSPVEMSREGGLTHPRLNIGHSNANITGEQALFDGQPDLKDRIT
notes: SPATULA (SPT) of Arabidopsis thaliana; In the SPT;SPT test one copy carried EGFP (FRET donor) and the other RFP (acceptor) in place of EGFP; both copies are written as this one molecule; also called SPT-EGFP; source: N. benthamiana leaves, Agrobacterium-infiltrated, in nuclei of the leaf cells
As to B1, the FRET efficiency in data set [1] is 5.7%; in data set [2], 9.6%; in data set [3], 7.4%.
